The source of these data is patent publication US7094575B2 (priority 1999, dated 2006).

The target of data set [1] is Daboiatoxin PLA2 (Daboia siamensis, UniProt Q7T2R1+Q7T3T5). Format: in vivo, mice. Particulars: mouse, in vivo.
Data set [2] deals with daboiatoxin, the major PLA2 toxin of Daboia russelli siamensis venom (Daboia siamensis, UniProt Q7T2R1+Q7T3T5). The data set is classed as biochemical.
Data set [3] has as its system PLA2 activity of Daboia russelli siamensis venom. Format: biochemical.
For data set [4], the system named is Daboia russelli pulchella (Sri Lanka) venom. Format: in vivo, mice.
The test system of data set [5] is Daboia russelli siamensis venom. The data set is classed as in vivo, mice.
Test in data set [6]: not given
This is another data set of the same source.

For data set [7], the system named is Daboia russelli siamensis venom. The data set is classed as in vivo, mice. Particulars: Table 6; for Paw oedema: 45 min, n = 3.
Data set [8] relates to Daboia russelli russelli (India) venom. The data set is classed as in vivo, mice.
Data set [9] deals with T1, Daboiatoxin PLA2 (Daboia siamensis, UniProt Q7T2R1+Q7T3T5).
T1 sequence (Q7T2R1 whole entry, looked up): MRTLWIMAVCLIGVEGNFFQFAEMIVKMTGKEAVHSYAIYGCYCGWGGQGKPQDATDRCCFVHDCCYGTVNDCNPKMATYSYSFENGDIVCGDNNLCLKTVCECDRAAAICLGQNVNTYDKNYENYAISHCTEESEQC
T1 sequence (Q7T3T5 whole entry, looked up): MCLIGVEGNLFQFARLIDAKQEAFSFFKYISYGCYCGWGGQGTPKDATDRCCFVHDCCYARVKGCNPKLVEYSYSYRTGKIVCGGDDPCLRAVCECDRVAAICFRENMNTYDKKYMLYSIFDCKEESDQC
The data set is classed as in vivo, mice.

Data set [10] concerns Daboia russelli siamensis (Thailand) venom. Format: in vivo, mice.

Values joined by “and” are separate entries in the source; they are usually repeats but may differ in a detail not shown here. Equal entries are not always repeated. Where two headings read alike, the source gives them in different places. Where no end group is shown, it is not given here.

PLPGLPLSLQNGLYK [PP-0008]: on Daboiatoxin PLA2 [1], the “Anti-Inflammatory Activity” value is “Negative”. In data set [2], the “PLA2-inhibitory activity (in words)” value is reported as “insignificant” and the “PLA2 inhibition (%)” value worked out at 18%.
For the molecule LSLQNGLYK [PP-0006], in data set [2], the “IC50” value is 250 µg and the “PLA2 inhibition (%)” value stood at 70%.
As to PGLPLSLQNG [P-0029], in data set [2], the “IC50” value is 40 µg and the “PLA2 inhibition (%)” value is reported as 90%. Besides, the “Oedema (mg), inhibitor alone” value (mouse, in vivo) was 13 ± 2 mg.
In the case of PLPGLPLSKP [P-0009], in data set [2], the “IC50” value is 125 µg and the “PLA2 inhibition (%)” value is given as 80%.
Consider GAFGIFTEDSTEK [PP-0005], for which, on Daboiatoxin PLA2 [1], the “Anti-Inflammatory Activity” value is “Negative”. Further, in [2], the “PLA2-inhibitory activity (in words)” value was “fails to inhibit PLA2 activity” and the “PLA2 inhibition (%)” value is on record as −13%.
For PLPGLPLSLQNGLYCPGAFGIF [PP-0036], in that order: “Negative”, “devoid of PLA2-inhibitory activity” and −3.0%.

B1: PAF: 140-kDa hexameric glycoprotein of six 23-kDa subunits purified from Python reticulatus serum; SEQ ID NO: 6 (protein, listed as Python reticulatus)
chain: MKSLQTICLLFIFIARGTSDKCEICHGFGDDCDGYQEECPSPEDRCGKILIDIALAPVSFRATHKNCFSSSICKLGRVDIHVWDGVYIRGRTNCCDNDQCEDQPLPGLPLSLQNGLYCPGAFGIFTEDSTEHEVKCRGTETMCLDLVGYRQESYAGNITYNIKGCVSSCPLVTLSERGHEGRKNDLKKVECREALKPASSD
B1: the “Inhibitory activity (IC50)” value in data set [3] was determined as 0.2 mg. Besides, the “Protection against lethality, Survival/total” value is listed as 3/3 in [4] (24 hr), 4/4 in data set [5] (24 hr), 3/3 in [8] (24 hr) and 3/3 in data set [10] (24 hr). The “% neutralisation” value in data set [4] (mouse, in vivo, ip) was 100%; in [5] (mouse, in vivo, ip), 100%; in data set [8] (mouse, in vivo, ip), 100%; in data set [10] (mouse, in vivo, ip) it was 100%. In addition, in data set [6] (24 hr), the “Survival/total, PAF alone” value is given as 3/3. The “toxicity of native PAF” value in data set [6] (mice) is “non-toxic”. Further, the “% Inhibition (mean)” value in data set [7] (venom 5 μg + 25 μg inhibitor) was 7.8%; in [7] (venom 5 μg + 50 μg inhibitor) it was 46.5%; in data set [7] (venom 5 μg + 100 μg inhibitor), 74.6%; in the data set with Daboiatoxin PLA2 [9] (mouse, in vivo), 89.4% and 92.1%. Besides, the “Paw oedema” value in data set [7] (venom 5 μg + 25 μg inhibitor subplantar, PAF is recombinant) was 107 ± 20 mg; in data set [7] (venom 5 μg + 50 μg inhibitor), 62 ± 2.2 mg; in data set [7] (venom 5 μg + 100 μg inhibitor), 29 ± 0.8 mg; with Daboiatoxin PLA2 [9] (45 min, n = 3) it was 18 ± 6.0 mg and 13 ± 0.4 mg. Moreover, where the note is “mouse, in vivo”, the “% Inhibition (mean) column, inhibitor alone” value was “n.s”. Further, for the setting “n = 3”, the “Paw oedema (mg), inhibitor alone” value was determined as 10 ± 5.2 mg.
